According to patent US20040049009A1, “Methods for improving the antagonistic/agonistic properties of peptidic antagonists/agonists of the corticotropin-releasing factor receptor (crfr)” (published 2004):
Ends that are not written are not given here.

Key:
rat CRF receptor, type 1 [1] = target: T1, rat CRF receptor, type 1 (rat, UniProt P35353); assay: SPA competition with 0.05 nM [125I-Tyr0]h/rCRF, HEK-293 membranes; 95% CI (0.06-0.51)
rat CRF receptor, type 1 [2] = target: T1, rat CRF receptor, type 1; assay: SPA competition with 0.05 nM [125I-Tyr0]h/rCRF, HEK-293 membranes; 95% CI (0.15-0.49)

Binder | IC50 (rat CRF receptor, type 1 [1]) [pM] | IC50 (rat CRF receptor, type 1 [2]) [pM]
QGPPISIDLSLELLRKMIEIARAEKEKQQAANNRLLLDTI (ends and bridges not checked) [[Ala^21,23Arg^22]Svg] | 290 | 
QGPPISIDLSLELLRKMIEIAKQEKEKQQAANNRLLLDTI (ends and bridges not checked) [[Ala^21]Svg] |  | 320
